From article PMC8097335, “A High‐Affinity Calmodulin‐Binding Site in the CyaA Toxin Translocation Domain is Essential for Invasion of Eukaryotic Cells” (Advanced Science, 2021) come the findings set out here.

The Kd is the constant that tells how readily two partners part at equilibrium.

The experiment has as its target T1, calmodulin (calcium-loaded: holo-CaM) (UniProt P0DP23).
T1 construct: also called apo-CaM (without calcium)
Kind of experiment: other fluorescence titration + ITC. As to conditions: both partners purified.

As for ASAHWGQRALQGAQAVAAAQRLVSAAALMTQ [P454 H477S-I479A peptide], the “fold decrease of affinity for CaM against P454” value (“fold decrease of affinity” below) is around 20 fold.
ASAHWGQRALQGAQAVAAAQRAVSAAALMTQ [P454 L475A-H477S-I479A peptide]: the “fold decrease of affinity” value is around 20 fold.
Turning to ASAHWGQEALQGAQAVAAAQELVHAIALMTQ (also called TAMRA-P454 R12E) [P454 R12E peptide (P454 with R461E and R474E)], the dissociation constant (Kd) amounted to 22.7 µM.
As to ASAHAGQRAAQGAQAVAAAQRLVHAIALMTQ [P454 W458A-L463A peptide], the “fold decrease of affinity” value worked out at 4 fold.
